Publication PMC6993569

Key:
[1] = target: BBLF1-Flag (Epstein-Barr virus)
[2] = target: SDE-BBLF1-Flag (Epstein-Barr virus)

B1: BGLF2-GFP (natural protein)
chain: MASAANSSREQLRKFLNKECLWVLSDASTPQMKVYTATTAVSAVYVPQIAGPPKTYMNVTLIVLKPKKKPTYVTVYINGTLATVARPEVLFTKAVQGPHSLTLMYFGVFSDAVGEAVPVEIRGNPVVTCTDLTTAHVFTTSTAVKTVEELQDITPSEIIPLGRGGAWYAEGALYMFFVNMDMLMCCPNMPTFPSLTHFINLLTRCDNGECVTCYGAGAHVNILRGWTEDDSPGTSGTCPCLLPCTALNNDYVPITGHRALLGLMFKPEDAPFVVGLRFNPPKMHPDMSRVLQGVLANGKEVPCTAQPWTLLRFSDLYSRAMLYNCQVLKRQVLHSY
- recruitment of BGLF2-GFP to the TGN (colocalisation with TGN46) in cotransfected A7 cells, confocal microscopy (% of transfected cells) [1]: 70
- recruitment of BGLF2-GFP to the TGN (colocalisation with TGN46) in cotransfected A7 cells, confocal microscopy (% of transfected cells) [2]: 70
